Key:
[1] = target: T1, human B7H4 on the cell surface (human, UniProt Q7Z7D3 25-282); assay: FACS, SK-BR-3 cells
T1 construct: whole, on cells; also called CHOK1/hu B7H4; B7H4 on SK-BR-3
T1 sequence (looked up): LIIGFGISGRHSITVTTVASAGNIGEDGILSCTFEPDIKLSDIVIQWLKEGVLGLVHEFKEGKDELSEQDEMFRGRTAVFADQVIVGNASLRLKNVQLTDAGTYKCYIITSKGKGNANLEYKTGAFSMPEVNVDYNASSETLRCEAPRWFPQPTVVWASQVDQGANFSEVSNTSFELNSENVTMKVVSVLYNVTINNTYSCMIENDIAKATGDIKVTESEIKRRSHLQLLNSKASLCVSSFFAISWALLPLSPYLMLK
Method: (§1) This example is intended to investigate the in vitro binding activity of anti-human B7H4 H2L2 monoclonal antibody to human/cynomolgus monkey/mouse B7H4. Antibody binding experiments at the cellular level were performed using CHOK1 cell line overexpressing human B7H4 (CHOK1/hu B7H4, Harbour BioMed), CHOK1 cell line overexpressing cynomolgus monkey B7H4 (CHOK1/cyno B7H4, Harbour BioMed), CHOK1 cell line overexpressing mouse B7H4 (CHOK1/m B7H4, Harbour BioMed) and SK-BR-3 cell line (ATCC® HTB-30) highly expressing human B7H4. Briefly, CHOK1/hu B7H4 cells, CHOK1/cyno B7H4 cells, CHOK1/m B7H4 cells or SK-BR-3 cells were digested and resuspended with PBS containing 2% BSA. The cell density was adjusted to 1×10⁶ cells/mL. The cells were seeded in a 96-well V-bottom plate (Corning, #3894) at 100 μL/well, followed by the addition of test antibodies diluted in a 3-fold concentration gradient of 2 times the final concentration, each at 100 μL/well. The cells were incubated at 4° C. for 2 h away from light. Thereafter, the cells in each well were rinsed twice with 100 μL of pre-cooled PBS containing 2% BSA, and centrifuged at 500 g at 4° C. for 5 min, and then the supernatant was discarded. Then 100 μL of a fluorescent secondary antibody (Alexa Fluor 488-conjugated AffiniPure Goat Anti-Human IgG, Fcγ Fragment Specific, Jackson, #109-545-098, 1:500 diluted) was added to each well. The plate was incubated away from light at 4° C. for 1 h. The cells in each well were washed twice with 100 μL of pre-cooled PBS containing 2% BSA, and centrifuged at 500 g at 4° C. for 5 minutes, and then the supernatant was discarded. Finally, the cells in each well were resuspended with 200 μL of pre-cooled PBS containing 2% BSA, and the fluorescence signal values were read using an ACEA Novocyte3000 flow cytometer.

[2] = target: T1, human B7H4 on the cell surface; assay: FACS on MDA-MB-468 cells; in the drawn table the number stands under the head 'Maximum MFI' (the two heads are interchanged); the head says nM, the axis of the curve µg/mL
[3] = target: T2, mouse B7H4 on the cell surface (mouse, UniProt Q7TSP5 25-257); assay: FACS, CHOK1/m B7H4 cells
T2 construct: whole, on cells; also called CHOK1/m B7H4
T2 sequence (looked up): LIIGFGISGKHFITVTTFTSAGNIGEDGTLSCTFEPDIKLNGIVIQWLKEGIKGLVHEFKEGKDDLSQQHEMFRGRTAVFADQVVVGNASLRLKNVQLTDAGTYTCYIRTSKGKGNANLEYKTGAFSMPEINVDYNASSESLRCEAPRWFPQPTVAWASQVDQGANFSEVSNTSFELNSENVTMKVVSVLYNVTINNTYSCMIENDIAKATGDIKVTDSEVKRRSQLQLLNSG
Method: as §1, with “Then 100 μL of a fluorescent secondary antibody (Alexa Fluor 488-conjugated AffiniPure Goat Anti-Human IgG, Fcγ Fragment Specific, Jackson, #109-545-098, 1:500 diluted) was added to each well. The plate was incubated away from light at 4° C. for 1 h. The cells in each well were washed twice with 100 μL of pre-cooled PBS containing 2% BSA, and centrifuged at 500 g at 4° C. for 5 minutes, and then the supernatant was discarded.” left out

[4] = target: T1, human B7H4 on the cell surface; assay: FACS, CHOK1/hu B7H4 cells
Method: as §1

[5] = target: T3, B7-H4 (Acro Biosystems, #B74-H82E2) (UniProt Q7Z7D3 29-258); assay: BLI epitope competition; 1st Ab = row; competitor (2nd Ab) Control antibody 1; inhibition of the 2nd Ab signal
T3 construct: Bought protein; also called B7-H4 captured on SA sensor
T3 sequence (looked up): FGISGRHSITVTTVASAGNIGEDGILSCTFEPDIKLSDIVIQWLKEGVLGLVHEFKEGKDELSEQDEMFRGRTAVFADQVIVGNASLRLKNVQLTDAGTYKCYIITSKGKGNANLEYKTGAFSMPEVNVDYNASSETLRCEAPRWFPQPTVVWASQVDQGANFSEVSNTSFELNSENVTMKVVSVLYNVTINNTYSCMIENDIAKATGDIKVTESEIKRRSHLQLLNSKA
Method: (§2) Step one, acquisition of 100% signal of antibodies: B7-H4 (Acro Biosystems, #B74-H82E2-200 μg) was captured at a capture height of 0.25 nm using an SA sensor (Fortebio, #18-5019). The sensor was equilibrated in a buffer for 120 s and then immersed in each antibody diluted to 100 nM for 240 s, and the final signal of the antibody binding to B7-H4 was recorded as the 100% signal of the antibody. Step two, epitope competition experiment: B7-H4 was captured using an SA sensor at a capture height of 0.25 nm. The sensor was immersed in a primary antibody (at a concentration of 100 nM) for 240 s, and then the SA sensor was immersed in a mixture of the primary and secondary antibodies (both at a final concentration of 100 nM) for 240 s, and the difference in signals after immersion of the sensor in the antibody mixture was recorded as the signal of the antibody as the secondary antibody. The inhibition rate was calculated according to the following formula: […]

[6] = target: T3, B7-H4 (Acro Biosystems, #B74-H82E2); assay: BLI epitope competition; 1st Ab = row; competitor (2nd Ab) Control antibody 2; inhibition of the 2nd Ab signal
Method: as §2

[7] = target: T1, human B7H4 on the cell surface; assay: FACS on MDA-MB-468 cells
[8] = target: T1, human B7H4 on the cell surface; assay: FACS on MDA-MB-468 cells; in the drawn table the number stands under the head 'EC50 (nM)' (the two heads are interchanged)
[9] = target: T3, B7-H4 (Acro Biosystems, #B74-H82E2); assay: BLI epitope competition; 1st Ab = row; competitor (2nd Ab) PR002418; inhibition of the 2nd Ab signal
Method: as §2

B1: Control antibody 1 (PR000157) (antibody, V domains shown)
VH: EVQLVQSGAEVKKPGASVKVSCKASGYTFTSYWIGWVRQAPGQGLEWIGDIYPGGGYTNYNEKFKGRVTITRDTSTSTAYLELSSLRSEDTAVYYCARLAGSSYRGAMDSWGQGTLVTVSS
VL: DIQMTQSPSSLSASVGDRVTITCKASQGFNKYVAWYQQKPGKAPKLLIYYTSTLQPGVPSRFSGSGSGRDYTLTISSLQPEDFATYYCLQYGDLLYAFGQGTKVEIKR
notes: Anti-B7H4 IgG1 control antibody from WO2016040724A1; also called 1D11.v1.9varC2
EC50 [1]: 1.18 nM | Maximum MFI [1]: 316000 MFI | EC50 [2]: 0.194 nM | EC50 [3]: 1.73 nM | Maximum MFI [3]: 1.75e+06 MFI | EC50 [4]: 1.94 nM | Maximum MFI [4]: 1.84e+06 MFI | Competitive inhibition rate (%) [5]: 95.3% | Competitive inhibition rate (%) [6]: 94.6% | EC50 (read off the curve) [7]: ~0.2 µg/mL | Maximum MFI [8]: 254000 | Competitive inhibition rate (%) [9]: 4.55%

Reference: patent US20230312722A1 (NONA BIOSCIENCES SUZHOU, published 2023)
